Results on three variants are retold here after FireProtDB (doi:10.1002/prot.20496).

B1: Alpha-lactalbumin, P00712 (parent)
chain: MMSFVSLLLVGILFHATQAEQLTKCEVFQKLKDLKDYGGVSLPEWVCTAFHTSGYDTQAIVQNNDSTEYGLFQINNKIWCKDDQNPHSRNICNISCDKFLDDDLTDDIVCAKKILDKVGINYWLAHKALCSEKLDQWLCEKL

Where “and” joins values, the source holds several entries; their conditions need not be identical. Equal values may be shown once.

In the data set the parent is B1. As to conditions: Capra hircus, pH 7.5, Thermal, Tris-HCl 10 mM, CaCl2 2 mM, structure 1HFY, whole UniProt chain shown.

As a reminder, the Tm is the temperature at the midpoint of the melting transition. Turning to MMSFVSLLLVGILFHATQAEQLTKCEVFQKLKDLKDYGGVSLPEWVCTAFHTSGYDTQAIVQNNDSTEYGLFQINNKIFCKDDQNPHSRNICNISCDKFLDDDLTDDIVCAKKILDKVGINYWLAHKALCSEKLDQWLCEKL [W79F], where the note is “DSC”, the Tm is 67.9 °C and the “change of melting temperature, mutant - wild type (higher = more stable)” value (shortened to “change of melting temperature, mutant”) was -3.2 °C. Besides, for the setting “Fluorescence”, the Tm came out at 69.2 °C and the “change of melting temperature, mutant” value was -2 °C.

Regarding MMSFVSLLLVGILFHATQAEQLTKCEVFQKLKDLKDYGGVSLPEWVCTAFHTSGYDTQAIVQNNDSTEYGLFQINNKIWCKDDQNPHSRNICNISCDKFLDDDLTDDIVCAKKILDKVGINYWLAHKALCSEKLDQFLCEKL [W137F], for the setting “DSC”, the Tm worked out at 71.5 °C and the “change of melting temperature, mutant” value is 0.4 °C.

MMSFVSLLLVGILFHATQAEQLTKCEVFQKLKDLKDYGGVSLPEWVCTAFHTSGYDTQAIVQNNDSTEYGLFQINNKIFCKDDQNPHSRNICNISCDKFLDDDLTDDIVCAKKILDKVGINYWLAHKALCSEKLDQFLCEKL [W79F W137F]: under “DSC”, the Tm stood at 68.1 °C and the “change of melting temperature, mutant” value is -3 °C. Further, for the setting “Fluorescence”, the Tm is 71 °C and 68 °C; the “change of melting temperature, mutant” value was -0.2 °C and -1.9 °C.
